Measured values taken from article PMC2954370.

Target: HIV-1 Env gp140 of isolate JRFL (HIV-1 isolate JRFL (clade B)) (UniProt Q75760)
Assay: ELISA

human soluble CD4 (first two domains of the human CD4) (from UniProt P01730 26-203) (domain or fragment)
EC50: 6 nM
